In patent US20260258115A1 (MAPP BIOPHARMACEUTICAL, published 2026):
Positions count from the first letter of the chain named.

B1: ADI-19480 (antibody, V domains shown)
VH: EVQLVESGGGLVKPGGSLRLSCAASGFTFSAYSMNWVRQAPGKGLEWVSSISSTTNYISYADSVKGRFTISRDNAKNSLYLQMNSLRAEDTAVYYCARDPKYYGLGTYYKDDYWGQGTLVTVSS
VL: NFMLTQPHSVSESPGKTVTISCTRSGGSIASNYVQWYQQRPGSSPTTVIYEDNQRPSGVPDRFSGSIDSSFNSASLTVSGLKTEDEADYYCQSFDNNNRWVFGGGTKLTVL
notes: full-length IgG
B2: ADI-19482 (antibody, V domains shown)
VH: QVQLQQWGAGLLKPSETLSLTCGAFHGSFSGYYWSWIRQPPGKGLEWIGEVTHSRSTNYNPSLKSRITISVDTSRNQFSLKLNSVTAADTAVYYCARGSGEWYFDIWGRGTLVTVSS
VL: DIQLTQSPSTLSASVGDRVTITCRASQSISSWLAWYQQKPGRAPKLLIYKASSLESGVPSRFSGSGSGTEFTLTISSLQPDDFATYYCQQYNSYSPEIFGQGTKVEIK
notes: full-length IgG
B3: ADI-22759 (antibody, V domains shown)
VH: EVQLLESGGGLVKPGGSLRLSCAASGFSFSSYTMNWVRQAPGKGLEWVSSITGGSSYIDYAGSLKGRFTISRDNAKNSLYLQMNSLRVEDTAVYYCARDFPNIAVGGKTLDYWGQGTLVTVSS
VL: QPVLTQPPSVSGAPGQRVTISCTGSSSNIGAGYDVHWFQQLPGTAPKLLIYVNNNRPSGVPDRFSGSKSGTSASLAITGLQAEDEADYYCQSYDRLSAVVFGGGTKVTVL
notes: full-length IgG
B4: ADI-14338 (antibody, V domains shown)
VH: EVQLVESGGGVVQPGRPLRLSCAASGFTFSTYDLYWVRQAPGKGLDWVAIISPDGNKKYYADSVKGRFTISRDNSKNTLFLHMNSLRAEDTAVYYCARDYGNYFGSGSYYRYFDLWGRGTLVTVSS
VL: DIQLTQSPSSLSASVGDRVTITCRASQSISSHLNWYQQKPGKAPKLLIYASSSLQSGVPSRFSGSGSGTDFTLTISGLQPEDFATYYCQQSYSTPFTFGPGTKVEIK
notes: full-length IgG; also called Ab 6
B5: ADI-14341 (antibody, V domains shown)
VH: QVQLVQSGGGLVQPGGSLRLSCAGSGFTFSDYEMNWVRQAPGKGLEWLSYISSSGSIIYYADSVKGRFTISRDNAKNSLYLQMNSLRAEDTGLYYCARANHRHYYGMDVWGQGTTVTVSS
VL: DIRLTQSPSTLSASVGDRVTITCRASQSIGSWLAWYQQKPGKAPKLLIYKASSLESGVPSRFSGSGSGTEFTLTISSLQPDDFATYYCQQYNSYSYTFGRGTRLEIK
notes: full-length IgG; also called Ab 9
B6: ADI-14350 (antibody, V domains shown)
VH: EVQLVESGPGLVKPSETLSLTCTVSGDSVSNNNYYWNWIRQSPGKGLEWIGYIYYSGSTDYNPSLKSRVTISVDTSKNQFSLNLRSVTAADTAIYFCASAPWGMFTILGVVP
VL: QSVLTQPPSVSGAPGQRVTISCTGSSSNIGAGYDVHWYQQLPGTAPKLLIYGSSNRPSGVPDRFSGSRSGTSASLAITGLQAEDEADYYCQSYDGSLGVYVFATGTKVTVL
notes: full-length IgG; also called Ab 18
B7: ADI-14355 (antibody, V domains shown)
VH: EVQLVESGPTLVKPTQTLTLTCTFSGFSLSTSGVGVGWIRQPPGKALEWLAVIYWDDDKTYSPSLKSRLTITKDTSKNQVVLTMTNMNPVDTATYYCARCPAPVYSYGVDVWGQGTTVTVSS
VL: QSALTQPASVSGSPGQSITISCTATSSDFGGYDYVSWYQQHPGEAPKLMISDVTNRPSGVSNRFSGSKSGNTASLTISGLQAEDEADYYCSSYTSYTTPYVFGTGTKLTVL
notes: full-length IgG; also called Ab 23
B8: ADI-14365 (antibody, V domains shown)
VH: QVQLVQSGAEVKKPGASVKVSCKVSGYTLTKLSMHWVRQAPGKGLEWMGFFDPEDGDTLYAQKFQGRVTMTEDTSSDTPYMELRSLRSEDTAVYYCASPAAAGQFDYWGQGTLVTVSS
VL: DIVMTQSPSSLSASVGDRVTITCRASQFISSYLHWYQQKTGKAPKLLIYAASSLQSGVPSRFSGSGSGTDFTLTISSLQPEDFATYYCQQSYNTPRTFGQGTKLEIK
notes: full-length IgG; also called Ab 33
B9: ADI-14368 (antibody, V domains shown)
VH: EVQLVESGGGLVKPGGSLRLSCAASGFTFINAWMSWVRQAPGKGLEWVGRIKSKADGGTTDDAAPVKGRFTISRDDSKNTLYLQMNSLKIEDTAVYYCATDVLPLYNWNLGWNFDLWGRGTLVTVSS
VL: SYVLTQPPSVSVAPGKTARITCGGNNIADKSVHWYQQKPGQAPVLVMYYDTDRPSGIPERFSGFNSGNTATLTISRVEAGDEADYYCQVWDSSSDHVVFGGGTKVTVL
notes: full-length IgG; also called Ab 36
B10: ADI-41354 (antibody, V domains shown)
VH: EVQLLESGGGLVQPGGSLRLSCAASGFTFSSYAMSWVRQAPGKGLEWVSGISGSGGTTYYADSVKGRFTISRDNSKNTLYLQMNSLRAEDTAVYYCAKDSPVNINCGGDCDVAYWGQGTLVTVSS
VL: EIVMTQSPSSLSASVGDTVTITCQASQDISYSLNWYQQKPGKAPNLLIFDASHLQTGVPSRFSGGGDGKHFSFTISSLQPEDVATYYCQQYDSLMYTFGQGTKVEIK
notes: IgG1; also called Ab 651
B11: ADI-41355 (antibody, V domains shown)
VH: EVQLVESGGGLVKPGGSLRLSCTASGFTFSDYYMNWIRQAPGKGLEWVSYISGDGNTIYYTDSVKGRFTISRDNAKNSLFLQMNSLRGEDSAVYYCAGPVRGYTYGIFDYWGQGALVTVSS
VL: YYVLTQPPSVSVAPGQAARITCGGNNIGSRSVNWYQQKPGQAPVVVIYGDSVRPSGIPERFSGSNSGNTATLTFSRVEAGDEADYYCQVWETNSDHPVVFGGGTKVTVL
notes: IgG1
B12: ADI-41360 (antibody, V domains shown)
VH: EVQLVESGGGLVQPGGSLRLSCAASGLTFSRYSMNWVRQAPGKGLEWVSYISSTGRRIQYADSVKGRFTISRDDGKNSLYLQMNSLRAEDTAVYYCARDPLNYHDNTAYWSYWGQGTLVTVSS
VL: B1 VL with G26S, S44A, F71S, V78I, F94Y, N96S, N97S, R99P, W100L
notes: IgG1; also called Ab 657
B13: ADI-41365 (antibody, V domains shown)
VH: EVQLVESGGGLVKPGGSLRLSCATSGFTFSDYYMTWIRQAPGKGLEWVSYISSSGGYTNYADSVRGRFTISRDNAKRSLYLQMNSLRAEDTAVYYCARVEFSSGDVPSLFDSWGQGTLVTVSS
VL: QSVLTQPPSVSGAPGQRVTISCTGSSSNLGAGYHVHWYQQFPGTAPKPLIYGNTNRPSGVPDRFSGSKSGTSASLAITGVQAEDEADYYCQSYDYSLSGWVFGGGTKLTVL
notes: IgG1
B14: ADI-41366 (antibody, V domains shown)
VH: QVQLVQSGAEVKKPGESLKISCKASGYSSTTYWIGWVRQISGKGLEWMGIIYPGDSDTRYSPSFQGQVTISADRSTKTAYLQWSSLKASDTAMYYCGTSGFGVATPFDYWGQGTLVTVSS
VL: NFMLTQPHSVSESPGKTVTISCTRTSGSIAGNYVHWYQQRPGSAPTTVIYEDNQRPSGVPDRFSGSIDRSSNSASLTISGLKTEDEADYYCQSYASGIHGVFGGGTKVTVL
notes: IgG1
B15: ADI-41367 (antibody, V domains shown)
VH: QVQLVQSGAAVKRPGASVKVSCKASGYTFSTNALHWVRQAPGQSLEWMGWINTDNGIPKYSERFHGRVTFTRDTSASTVYMDLSGLRSGDTAVYYCARDGSSGHWLGLSVLDNWGQGTLVTVSS
VL: QSALIQPASVSGSPGQSITISCTGTSDDVGAYNYVSWYQQYPNKAPKLVIYEVSHRPSGVSNRFSGSKSGNTASLTISGLQAEDEADYYCSSYTRSATPYVFGTGTKLTVL
notes: IgG1
B16: ADI-41368 (antibody, V domains shown)
VH: EVQLVESGGGVVQPGRSLRLSCAASGFIFRNYGMHWVRQAPGKGLEWVAGTSFEGRNKDYGHSVKGRFTISRDNSKDTLYLQMNSLRPEDTAVYSCAKGSSLQWSHLDWYFDLWGRGTLVTVSS
VL: DIVMTQSPSTLSASVGDRVTITCRASQSFSSWLAWYQQKPGKAPNLLIYDASTLESGVPSRFSGSGSGTEFTLTISSLQPDDFATYYCQQERTFGQGTKVEIK
notes: IgG1; also called Ab 665
B17: ADI-41369 (antibody, V domains shown)
VH: EVQLVQSGGGVVQPGRSLRLSCAASGFTFSSYGMHWVRQAPGKGLEWVAVISHDGNNKYYGDSVKGRFTISRDNSKNTLHLQMNSLRGDDTAVYYCGKDPLKGDCSGGSCYQRIDYWGQGTLVTVSS
VL: NFMLTQPHSVSESPGKTVTISCTGSSGRIASNYVQWYQQRPGSAPATVIYDDNQRPSGVPDRFSGSIDSSSNSASLTISGLKTEDEADYYCQSYDRSNHVIFGGGTKLTVL
notes: IgG1; also called Ab 666
B18: ADI-41370 (antibody, V domains shown)
VH: EVQLVESGGGLVKPGGSLRLSCAASGFTFSGFSMNWVRQAPGKGLEWVSSISSTSRYIYYADSVQGRFTISRDNAKNSLYLQMNSLRAEDTAVYYCARDPGGSASFVPYYYGMDVWGQGATVTVSS
VL: SYELIQPPSVSVSPGQTARITCSGDALPNQYVYWYQKKPGQAPVLVIYKDTEGPLGIPERFSGSSSGTTVTLTISGVQAEDEADYYCQSADSSGTYPYVVFGGGTKLTVL
notes: IgG1; also called Ab 667

The binders below were run against T1, RSV postfusion F (postF), subtype A (respiratory syncytial virus subtype A, UniProt P03420 26-513) (assay: BLI, IgG).
T1 construct: also called Postfusion subtype A; F deltaFP

| Binder | Kd [nM] |
| --- | --- |
| B1 | 0.129 |
| B2 | 1.71 |
| B3 | 25.3 |
| B4 | 5.98 |
| B5 | 0.713 |
| B6 | 0.264 |
| B7 | 0.48 |
| B8 | 10.3 |
| B9 | 24.5 |

The binders below were run against T2, RSV prefusion F (preF), subtype B (respiratory syncytial virus subtype B) (assay: BLI, IgG).
T2 construct: also called Prefusion subtype B

| Binder | Kd [nM] |
| --- | --- |
| B1 | 0.383 |
| B2 | 1.89 |
| B3 | 0.353 |
| B4 | 7.04 |
| B6 | 0.574 |
| B7 | 1.25 |
| B8 | 0.962 |
| B9 | 1.21 |

Each binder was assayed against T3, RSV postfusion F (postF), subtype B (respiratory syncytial virus subtype B) (assay: BLI, IgG).
T3 construct: also called Postfusion subtype B

| Binder | Kd [nM] |
| --- | --- |
| B1 | 0.119 |
| B2 | 0.555 |
| B3 | 10.1 |
| B4 | 3.14 |
| B5 | 0.612 |
| B6 | 0.148 |
| B7 | 0.37 |
| B8 | 22.3 |
| B9 | 17.7 |

The binders below were run against RSV F on RSV subtype A virus (mKate-RSV A2) (respiratory syncytial virus A2, UniProt P03420 26-574) (assay: cell-based or functional assay).

| Binder | Neut IC50 subtype A [µg/mL] |
| --- | --- |
| B2 | 1.49 |
| B3 | 0.08 |
| B8 | 0.8 |

Each binder was assayed against RSV F on RSV subtype B virus (mKate-RSV B 18537) (respiratory syncytial virus B 18537, UniProt P13843 26-574) (assay: cell-based or functional assay).

| Binder | Neut IC50 subtype B [µg/mL] |
| --- | --- |
| B1 | 6.25 |
| B2 | 2.24 |
| B3 | 0.2 |
| B4 | 10.2 |
| B5 | 17.5 |
| B6 | 4.82 |
| B7 | 4.72 |
| B8 | 0.49 |
| B9 | 1.1 |

What follows are binders tested against RSV fusion glycoprotein (RSV F) on RSV-A2 virus (respiratory syncytial virus, UniProt P03420 26-574) (assay: cell-based or functional assay).

| Binder | Neutralization IC50 (RSV subtype A) [µg/mL] |
| --- | --- |
| B10 | > 25 |
| B11 | > 25 |
| B12 | > 25 |
| B13 | > 25 |
| B14 | > 25 |
| B15 | > 25 |
| B16 | > 25 |
| B17 | > 25 |
| B18 | > 25 |

These binders were tested against RSV prefusion F (preF), DS-Cav1 (respiratory syncytial virus, UniProt P03420 26-513) (assay: BLI, IgG on sensor, 100 nM antigen).

| Binder | Kd [nM] |
| --- | --- |
| B10 | 0.771 |
| B11 | 3.84 |
| B12 | 2.46 |
| B13 | 2.87 |
| B14 | 1.79 |
| B15 | 17.6 |
| B16 | 3.08 |
| B17 | 0.685 |
| B18 | 5.59 |

The binders below were run against RSV postfusion F (postF), F deltaFP (respiratory syncytial virus, UniProt P03420 26-513) (assay: BLI, IgG on sensor, 100 nM antigen).

| Binder | Kd [nM] |
| --- | --- |
| B10 | 0.429 |
| B11 | 1.18 |
| B12 | 0.358 |
| B13 | 2.22 |
| B14 | 0.278 |
| B15 | 4.72 |
| B16 | 0.878 |
| B17 | 0.308 |
| B18 | 1.64 |
